The text below walks through data of the supplement of paper PMC10724198.

For data set [1], the system named is Saccharomyces cerevisiae. Briefly: protein stability index of tFT-peptide fusion in deletion strain of DAS1 (PSI (0-1 scale)); higher = more stable (slower turnover). The procedure: (§1)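 MPS profiling in S. cerevisiae of two library types built from selected 12-aa C-degron peptides (IN1, IN2, LN1, LN3, VN2, R1-R5, W1-W3, Atg1 and Rpa12 C-termini): saturation mutagenesis libraries and C-terminal +1 capping libraries (13 aa). Each peptide is fused to the C-terminus of a sfGFP-mCherry timer, after a GGGS linker. Cells are FACS-sorted into 8 mCherry/sfGFP bins and sequenced. PSI runs from 0 (unstable) to 1 (stable), measured once in wild type and in the das1Δ or doa10Δ background.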

For data set [2], the system named is Saccharomyces cerevisiae. The data set can be described thus: protein stability index of tFT-peptide fusion in wild type (PSI (0-1 scale)); higher = more stable (slower turnover). Conditions: genetic background: wild type. The procedure:
as §1
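Throughout, for protein stability index of tFT-peptide fusion in deletion strain of DAS1: PSI is a weighted mean of each variant's read distribution over the sorted stability bins, computed only for variants having over 10 reads in total.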
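Throughout, for protein stability index of tFT-peptide fusion in wild type: PSI derived as read-weighted mean over the 8 sorting bins, only variants exceeding 10 total reads kept, mCherry placed adjacent to the peptide and sfGFP distal.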

On to KSMRWTFRYWVN, for which the protein stability index worked out at 0.578 in the data set with Saccharomyces cerevisiae [1] and 0.0597 in the data set with Saccharomyces cerevisiae [2].
Consider LAVYLSCVACIN, for which the protein stability index in the data set on Saccharomyces cerevisiae [1] was determined as 0.0886; in the data set on Saccharomyces cerevisiae [2], 0.0214.
Regarding LCVYLSCVACIN, the values for the protein stability index in the data set with Saccharomyces cerevisiae [1] and with Saccharomyces cerevisiae [2] were 0.0253 and 0.0138, respectively.
LFILRQKMNHQN: the values for the protein stability index with Saccharomyces cerevisiae [1] and in the data set with Saccharomyces cerevisiae [2] were 0.692 and 0.126, respectively.
For the sequence LKHLRQKMNHQN, the figures for the protein stability index in the data set on Saccharomyces cerevisiae [1] and in the data set with Saccharomyces cerevisiae [2] were 0.712 and 0.175, respectively.
Taken in the same sequence, the figures for LKILAQKMNHQN were 0.667 and 0.229.
Take LKILCQKMNHQN: the protein stability index was 0.71 with Saccharomyces cerevisiae [1] and 0.246 with Saccharomyces cerevisiae [2].
As for LKILRCKMNHQN, the protein stability index in the data set with Saccharomyces cerevisiae [1] was 0.625; in the data set on Saccharomyces cerevisiae [2], 0.17.
With LKILRQKMNHQK, the protein stability index with Saccharomyces cerevisiae [1] was 0.682; in the data set with Saccharomyces cerevisiae [2], 0.666.
LKILRQKMNHQNA: the protein stability index in the data set on Saccharomyces cerevisiae [1] is 0.681; with Saccharomyces cerevisiae [2], 0.658.
For the sequence LKILRQKMNHQND, the protein stability index in the data set with Saccharomyces cerevisiae [1] worked out at 0.724; with Saccharomyces cerevisiae [2], 0.675.
Taken in the same sequence, the figures for LKILRQKMNHQNP were 0.688 and 0.678.
Consider LKILRQKMNHQNT, for which the protein stability index in the data set with Saccharomyces cerevisiae [1] was determined as 0.692; in the data set on Saccharomyces cerevisiae [2], 0.671.
Take LKILRQKMNHQR: the protein stability index is 0.669 with Saccharomyces cerevisiae [1] and 0.67 in the data set with Saccharomyces cerevisiae [2].
LKILRQKMNMQN: the protein stability index in the data set with Saccharomyces cerevisiae [1] was found to be 0.641; in the data set on Saccharomyces cerevisiae [2], 0.281.
As for LKILRQVMNHQN, the results for the protein stability index in the data set with Saccharomyces cerevisiae [1] and with Saccharomyces cerevisiae [2] were 0.663 and 0.315, respectively.
In the case of LKIMRQKMNHQN, the protein stability index was 0.664 with Saccharomyces cerevisiae [1] and 0.23 in the data set on Saccharomyces cerevisiae [2].
The matching figures for LKLLRQKMNHQN: 0.682 and 0.208.
Take LKVLRQKMNHQN: the results for the protein stability index in the data set with Saccharomyces cerevisiae [1] and in the data set with Saccharomyces cerevisiae [2] were 0.675 and 0.177, respectively.
In the case of LMVYLSCVACIN, the protein stability index in the data set on Saccharomyces cerevisiae [1] was determined as 0.0607; in the data set with Saccharomyces cerevisiae [2] it was 0.0204.
Turning to LNILRQKMNHQN, the results for the protein stability index in the data set with Saccharomyces cerevisiae [1] and with Saccharomyces cerevisiae [2] were 0.622 and 0.121, respectively.
Take LPILRQKMNHQN: the protein stability index with Saccharomyces cerevisiae [1] was 0.683; with Saccharomyces cerevisiae [2] it was 0.125.
LPVYLSCVACIN: the protein stability index in the data set on Saccharomyces cerevisiae [1] was 0.19; with Saccharomyces cerevisiae [2], 0.055.
LTILRQKMNHQN: the protein stability index in the data set with Saccharomyces cerevisiae [1] stood at 0.679; with Saccharomyces cerevisiae [2], 0.123.
In the case of LVLYLSCVACIN, the protein stability index worked out at 0.0273 in the data set on Saccharomyces cerevisiae [1] and 0.0137 with Saccharomyces cerevisiae [2].
For LVQYLSCVACIN, the figures for the protein stability index with Saccharomyces cerevisiae [1] and with Saccharomyces cerevisiae [2] were 0.18 and 0.0238, respectively.
With LVVCLSCVACIN, the values for the protein stability index with Saccharomyces cerevisiae [1] and with Saccharomyces cerevisiae [2] were 0.034 and 0.0139, respectively.
Regarding LVVGLSCVACIN, the protein stability index in the data set with Saccharomyces cerevisiae [1] stood at 0.215; in the data set on Saccharomyces cerevisiae [2], 0.159.
Consider LVVMLSCVACIN, for which the protein stability index was 0.0276 in the data set with Saccharomyces cerevisiae [1] and 0.0128 in the data set on Saccharomyces cerevisiae [2].
The matching figures for LVVYLLCVACIN: 0.0739 and 0.0159.
LVVYLSCAACIN: the protein stability index with Saccharomyces cerevisiae [1] was determined as 0.166; in the data set on Saccharomyces cerevisiae [2], 0.0321.
With LVVYLSCEACIN, the protein stability index was found to be 0.0235 with Saccharomyces cerevisiae [1] and 0.0807 in the data set with Saccharomyces cerevisiae [2].
As for LVVYLSCKACIN, the protein stability index with Saccharomyces cerevisiae [1] came to 0.0225; in the data set on Saccharomyces cerevisiae [2], 0.0136.
For LVVYLSCVACAN, the protein stability index with Saccharomyces cerevisiae [1] came to 0.0251; in the data set with Saccharomyces cerevisiae [2], 0.0124.
As to LVVYLSCVACIC, the values for the protein stability index in the data set with Saccharomyces cerevisiae [1] and in the data set with Saccharomyces cerevisiae [2] were 0.0309 and 0.0144, respectively.
Take LVVYLSCVACID: the protein stability index in the data set on Saccharomyces cerevisiae [1] amounted to 0.0175; with Saccharomyces cerevisiae [2], 0.0162.
With LVVYLSCVACINI, the values for the protein stability index in the data set with Saccharomyces cerevisiae [1] and with Saccharomyces cerevisiae [2] were 0.0321 and 0.0206, respectively.
On to LVVYLSCVACINK, for which the figures for the protein stability index with Saccharomyces cerevisiae [1] and in the data set on Saccharomyces cerevisiae [2] were 0.0356 and 0.0222, respectively.
Turning to LVVYLSCVACINT, the protein stability index in the data set on Saccharomyces cerevisiae [1] turned out to be 0.0331; with Saccharomyces cerevisiae [2], 0.0205.
Taken in the same sequence, the figures for LVVYLSCVACINY were 0.0337 and 0.0212.
Consider LVVYLSCVACIQ, for which the protein stability index in the data set with Saccharomyces cerevisiae [1] came out at 0.0327; in the data set with Saccharomyces cerevisiae [2] it was 0.0107.
As to LVVYLSCVACIS, the protein stability index in the data set on Saccharomyces cerevisiae [1] amounted to 0.0369; in the data set with Saccharomyces cerevisiae [2], 0.014.
The matching figures for LVVYLSCVACIV: 0.0299 and 0.0146.
Take LVVYLSCVAKIN: the protein stability index with Saccharomyces cerevisiae [1] amounted to 0.0401; in the data set with Saccharomyces cerevisiae [2], 0.0143.
